Assay results: paper PMC2191085

Legend:
[1] = target: CD2 on human PBLs (human (endogenous in PBLs)) (UniProt P06729)
[2] = target: CD2 on Jurkat cells (human (endogenous in Jurkat)) (UniProt P06729); assay: inhibition of cell rosetting

LFA3TIP (first domain-LFA-3/IgG1 fusion protein) (Fc fusion)
inhibition of T cell proliferation in response to HBsAg, LFA3TIP at 2 ug/ml [1]: 85%

multimeric phosphoinositol-linked LFA-3 (PI-LFA-3) (ligand)
fold lower concentration than LFA3TIP for inhibition of rosetting [2]: 300 fold
